Reference: patent US7205275 (dated 2007)
Like-named read-outs stand apart in the source and are kept apart here. Primed or numbered codes have the meaning given here. Where no end group is shown, it is not given here. [ ]: non-standard residue; d: D form. Fc(3) = Fc: non-antigen-binding fragment of an antibody from proteolytic digestion of a whole antibody (vehicle); Fc(4) = non-antigen-binding fragment of an antibody (from proteolytic digestion of a whole antibody); Fc = immunoglobulin Fc domain fused to the peptide (peptibody); Fc(7) = Fc domain, peptide fused N- or C-terminal to it; Fc″ = Fc domain of the peptibody fusion

Legend:
[1] = target: T1, mouse Ang-2 (mouse, UniProt O35608); assay: competition ELISA vs Tie-2
T1 chain: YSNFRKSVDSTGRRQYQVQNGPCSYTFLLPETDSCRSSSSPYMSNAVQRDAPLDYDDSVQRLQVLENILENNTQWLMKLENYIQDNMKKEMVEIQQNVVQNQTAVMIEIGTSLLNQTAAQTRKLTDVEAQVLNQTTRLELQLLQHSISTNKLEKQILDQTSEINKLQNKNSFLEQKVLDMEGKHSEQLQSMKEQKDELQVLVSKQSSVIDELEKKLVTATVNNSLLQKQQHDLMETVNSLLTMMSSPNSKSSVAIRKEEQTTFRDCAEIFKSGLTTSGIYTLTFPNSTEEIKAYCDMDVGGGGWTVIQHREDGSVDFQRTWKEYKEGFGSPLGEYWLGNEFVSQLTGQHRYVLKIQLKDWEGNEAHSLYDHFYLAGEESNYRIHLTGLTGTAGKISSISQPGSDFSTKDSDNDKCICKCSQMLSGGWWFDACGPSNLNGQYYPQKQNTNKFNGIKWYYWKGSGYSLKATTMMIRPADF

[2] = target: T2, human Ang-1 (human, UniProt Q15389); assay: competition ELISA vs Tie-2
T2 chain: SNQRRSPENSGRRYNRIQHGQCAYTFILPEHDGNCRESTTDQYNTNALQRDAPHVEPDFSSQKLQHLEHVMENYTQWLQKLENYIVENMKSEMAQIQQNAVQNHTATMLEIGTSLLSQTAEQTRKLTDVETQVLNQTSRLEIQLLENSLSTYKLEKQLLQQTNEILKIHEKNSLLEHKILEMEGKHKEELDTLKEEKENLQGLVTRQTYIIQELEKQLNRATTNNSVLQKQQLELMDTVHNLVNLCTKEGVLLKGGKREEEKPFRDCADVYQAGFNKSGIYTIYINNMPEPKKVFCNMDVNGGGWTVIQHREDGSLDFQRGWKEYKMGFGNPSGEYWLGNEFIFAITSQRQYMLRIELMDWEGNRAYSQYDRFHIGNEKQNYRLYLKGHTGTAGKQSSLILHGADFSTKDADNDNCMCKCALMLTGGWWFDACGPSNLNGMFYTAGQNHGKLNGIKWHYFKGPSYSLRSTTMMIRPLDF

[3] = target: T3, human Ang-2 (human, UniProt O15123); assay: competition ELISA vs Tie-2
T3 chain: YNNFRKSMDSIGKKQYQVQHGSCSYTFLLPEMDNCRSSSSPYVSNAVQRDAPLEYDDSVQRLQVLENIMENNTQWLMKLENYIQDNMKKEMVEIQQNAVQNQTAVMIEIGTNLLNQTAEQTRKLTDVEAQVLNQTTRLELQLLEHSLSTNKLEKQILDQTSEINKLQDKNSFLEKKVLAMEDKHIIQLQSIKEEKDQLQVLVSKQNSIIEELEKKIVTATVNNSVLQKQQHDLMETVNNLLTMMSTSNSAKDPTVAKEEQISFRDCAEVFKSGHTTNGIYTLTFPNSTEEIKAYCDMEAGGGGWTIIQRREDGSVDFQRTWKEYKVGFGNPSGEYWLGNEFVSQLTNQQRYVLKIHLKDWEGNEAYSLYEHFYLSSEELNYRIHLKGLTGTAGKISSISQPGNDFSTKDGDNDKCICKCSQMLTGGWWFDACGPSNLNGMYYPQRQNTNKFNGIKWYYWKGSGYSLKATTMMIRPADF

[4] = target: T3, human Ang-2; assay: competition ELISA vs Tie-2
[5] = target: T2, human Ang-1; assay: competition ELISA vs Tie-2
[6] = target: T4, rat Ang-2 (rAng-2) (rat, UniProt O35462); assay: competition ELISA vs Tie-2
T4 chain: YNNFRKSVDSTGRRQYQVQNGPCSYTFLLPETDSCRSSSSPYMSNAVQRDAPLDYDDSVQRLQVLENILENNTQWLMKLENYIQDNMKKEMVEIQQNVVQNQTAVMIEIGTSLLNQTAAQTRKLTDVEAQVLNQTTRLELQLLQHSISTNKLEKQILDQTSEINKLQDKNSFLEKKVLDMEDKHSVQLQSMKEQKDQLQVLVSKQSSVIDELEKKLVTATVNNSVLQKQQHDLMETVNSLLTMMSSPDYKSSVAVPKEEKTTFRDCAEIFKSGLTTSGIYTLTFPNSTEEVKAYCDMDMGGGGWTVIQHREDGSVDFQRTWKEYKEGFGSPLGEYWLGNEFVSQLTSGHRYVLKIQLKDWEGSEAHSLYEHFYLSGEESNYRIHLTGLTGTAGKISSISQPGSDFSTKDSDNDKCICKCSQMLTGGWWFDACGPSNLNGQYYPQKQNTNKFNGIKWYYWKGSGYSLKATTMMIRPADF

[7] = target: T1, mouse Ang-2; assay: competition ELISA vs Tie-2
[8] = target: T3, human Ang-2; assay: competition ELISA vs Tie-2
[9] = target: T3, human Ang-2; assay: SPR
[10] = target: T3, human Ang-2; assay: competition ELISA vs Tie-2
[11] = target: T3, human Ang-2; assay: SPR
[12] = target: T1, mouse Ang-2; assay: SPR

Binder | IC50 [1] [nM] | IC50 [2] [nM] | IC50 [3] [nM] | IC50 [8] [nM] | other results
MQEECEWDPWTCEHMGSGSATGGSGSTASSGSGSATHLEGGGGG[Fc] (not fully specified (bridges); cysteine pairing not given here; also: Fc fusion domain at position 45) [Con4 (N) 1K-WT] | 1.9 |  |  |  | 
MGAQHQICKWDPWTCKHWLEGGGGGX (not fully specified (C-terminus, bridges); printed as MGAQ-HQICKWDPWTCKHWLEGGGGG-Fc; cysteine pairing not given here) [TN8-14 (N)] | 33 | > 1000 | 45 |  | 
MGAQKRPCEEMWGGCNYDLEGGGGGX (not fully specified (C-terminus, bridges); printed as MGAQ-KRPCEEMWGGCNYDLEGGGGG-Fc; cysteine pairing not given here) [TN8-8 (N)] | ~700 | > 1000 | 80 |  | 
2xL1 (N) (designed binder) MGAQKFNPLDELEETLYEQFTFQQGGGGGGGGKFNPLDELEETLYEQFTFQQLEGGGGG[Fc(7)] | 0.8 |  | 0.65 |  | 
MGAQQKFQPLDELEQTLYEQFMLQQALEGGGGG[Fc(3)] [L1-10 (N)] |  |  |  | 0.05 | IC50 [4]: 0.06 nM; IC50 [5]: > 1000 nM; IC50 [6]: 0.06 nM; IC50 [7]: 0.06 nM; Kd [9]: 0.77 nM
MGAQQYGCDGFLYGCMINLEGGGGG[Fc(7)] (not fully specified (bridges); printed as MGAQ-QYGCDGFLYGCMINLE-GGGGG-Fc; cysteine pairing not given here; also: Fc fusion domain at position 26) [C17 (N)] | 13 | > 1000 | 9 |  | 
M[Fc]GGGGGAQTNIQEECEWDPWTCDHMPGKLE (not fully specified; cysteine pairing not given here) [Con4-40 (C)] |  |  |  |  | IC50 [4]: 0.2 nM; IC50 [5]: > 1000 nM; IC50 [6]: 0.35 nM; IC50 [7]: 0.27 nM; IC50 [10]: 0.1 nM
MGAQFDYCEGVEDPFTFGCDNHLEGGGGGX (not fully specified (C-terminus, bridges); printed as MGAQ-FDYCEGVEDPFTFGCDNHLE-GGGGG-Fc; cysteine pairing not given here) [TN12-9 (N)] | 7.7 | > 1000 | 21 |  | Kd [11]: 8.2 nM; Kd [12]: 0.32 nM
MGAQKFNPLDELEETLYEQFTFQQLEGGGGG[Fc(3)] [L1 (N)] | 11 | > 1000 | 6 |  | Kd [11]: 3.1 nM; Kd [12]: 0.42 nM
M[Fc(4)]GGGGGAQPIRQEECDWDPWTCEHMWEVLE (not fully specified; cysteine pairing not given here) [Con4-44 (C)] |  |  |  |  | IC50 [4]: 0.08 nM; IC50 [5]: 43 nM; IC50 [6]: 0.22 nM; IC50 [7]: 0.16 nM; IC50 [10]: 0.09 nM; Kd [9]: 0.21 nM
MGAQKRPCEEIFGGCTYQLEGGGGG[Fc] (not fully specified (bridges); printed as MGAQ-KRPCEEIFGGCTYQLEGGGGG-Fc; cysteine pairing not given here; also: Fc fusion domain at position 26) [Con1 (N)] | ~200 | > 1000 | 26 |  | 
MGAQQNFKPMDELEDTLYKQFLFQHSLEGGGGG[Fc(3)] [L1-11 (N)] |  |  |  | 0.07 | 
MGAQYKFNPMDELEQTLYEEFLFQHALEGGGGG-{Fc″} [L1-22 (N)] |  |  |  | 0.09 | 
M[Fc(7)]GGGGGAQLLDYCEGVQDPFTFGCENLDLE (not fully specified (bridges); cysteine pairing not given here) [12-9-5 (C)] |  |  |  | 1.56 | 
MGAQTNFQPLDELDQTLYEQWTLQQRLEGGGGG-Fc [L1-C3 (N)] |  |  |  | 0.06 | 
MGAQQEYEPLDELDETLYNQWMFHQRLEGGGGG[Fc(3)] [L1-13 (N)] |  |  |  | 0.05 | 
M[Fc]GGGGGAQGQDLRPCEDMFGCGTKDWYGLE (not fully specified (bridges); cysteine pairing not given here; also: Fc fusion domain at position 2) [Con1-6 (C)] |  |  |  | 8.6 | 
